According to the supplement of paper PMC5998384:

Experiments:
HeLa Kyoto [1] = assay: solubility in G1/S (NP-40 vs SDS abundance) (log2 ratio); higher = more soluble; details: cell cycle stage: G1/S
HeLa Kyoto [2] = assay: solubility change mitosis vs G1/S (difference of NP-40 vs SDS log2 ratios) (log2 ratio difference); higher = more soluble in mitosis
HeLa Kyoto [3] = assay: melting temperature (median over replicates), in situ; higher = more thermally stable
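Wherever melting temperature (median over replicates), in situ is given: HeLa Kyoto cells synchronized by double thymidine or nocodazole block, proteins quantified by TMT10plex mass spectrometry, three independent biological replicates.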
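Wherever solubility change mitosis vs G1/S (difference of NP-40 vs SDS log2 ratios) is given: synchronized HeLa Kyoto cells (double thymidine block for G1/S, nocodazole release for mitosis), protein amounts in NP-40 versus SDS lysates quantified by mass spectrometry, three biological replicates.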
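Wherever solubility in G1/S (NP-40 vs SDS abundance) is given: HeLa Kyoto cells arrested at G1/S by double thymidine block, proteins quantified by TMT10plex mass spectrometry in mild NP-40 versus SDS extracts, three biological replicates.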

Sequence	solubility in G1/S (log2) (HeLa Kyoto [1])	solubility change mitosis (log2) (HeLa Kyoto [2])	melting temperature (HeLa Kyoto [3]; cell cycle stage: mitosis) [°C]	melting temperature (HeLa Kyoto [3]; cell cycle stage: G1/S) [°C]
MPPERRRRMKLDRRTGAKPKRKPGMRPDWKAGAGPGGPPQKPAPSSQRKPPARPSAAAAAIAVAAAEEERRLRQRNRLRLEEDKPAVERCLEELVFGDVENDEDALLRRLRGPRVQEHEDSGDSEVENEAKGNFPPQKKPVWVDEEDEDEEMVDMMNNRFRKDMMKNASESKLSKDNLKKRLKEEFQHAMGGVPAWAETTKRKTSSDDESEEDEDDLLQRTGNFISTSTSLPRGILKMKNCQHANAERPTVARISSVQFHPGAQIVMVAGLDNAVSLFQVDGKTNPKIQSIYLERFPIFKACFSANGEEVLATSTHSKVLYVYDMLAGKLIPVHQVRGLKEKIVRSFEVSPDGSFLLINGIAGYLHLLAMKTKELIGSMKINGRVAASTFSSDSKKVYASSGDGEVYVWDVNSRKCLNRFVDEGSLYGLSIATSRNGQYVACGSNCGVVNIYNQDSCLQETNPKPIKAIMNLVTGVTSLTFNPTTEILAIASEKMKEAVRLVHLPSCTVFSNFPVIKNKNISHVHTMDFSPRSGYFALGNEKGKALMYRLHHYSDF [UTP18]	-2.03	0.81	52.7	–
MPVTHRKSDASDMNSDTSPSCRLRAFSRGGSLESRSSSSRSRSFTLDDESLKYLTHEEKDVLLFFEETIDSLDEDFEEPVLCDGGVCCLCSPSLEESTSSPSEPEDVIDLVQPAPGAGEAEGLPEGTQAAGPAPAGKEHRKQDAETPPPPDPPAPETLLAPPPLPSTPDPPRRELRAPSPPVEHPRLLRSVPTPLVMAQKISERMAGNEALSPTSPFREGRPGEWRTPAARGPRSGDPGPGPSHPAQPKAPRFPSNIIVTNGAAREPRRTLSRAAVSVQERRAQVLATIHGHAGAFPAAGDAGEGAPGGGSSPERVARGRGLPGPAESLRAGGQAPRGPALANGFPSAHEALKSAPSSFAPAGKSLCFRPGPALPSTRARQSFPGPRQPNGAQDWRRADSLPRPQGITVQFAGRGSSEEARREALRKLGLLRESS [PROSER2]	0.405	-0.0862	51.3	48.6
MQNEPLTPGYHGFPARDSQGNQEPTTTPDAMVQPFTTIPFPPPPQNGIPTEYGVPHTQDYAGQTGEHNLTLYGSTQAHGEQSSNSPSTQNGSLTTEGGAQTDGQQSQTQSSENSESKSTPKRLHVSNIPFRFRDPDLRQMFGQFGKILDVEIIFNERGSKGFGFVTFENSADADRAREKLHGTVVEGRKIEVNNATARVMTNKKMVTPYANGWKLSPVVGAVYGPELYAASSFQADVSLGNDAAVPLSGRGGINTYIPLISLPLVPGFPYPTAATTAAAFRGAHLRGRGRTVYGAVRAVPPTAIPAYPGVVYQDGFYGADLYGGYAAYRYAQPATATAATAAAAAAAAYSDGYGRVYTADPYHALAPAASYGVGAVASLYRGGYSRFAPY [RBFOX2]	0.223	0.0624	–	49.8
MRDYDEVTAFLGEWGPFQRLIFFLLSASIIPNGFTGLSSVFLIATPEHRCRVPDAANLSSAWRNHTVPLRLRDGREVPHSCRRYRLATIANFSALGLEPGRDVDLGQLEQESCLDGWEFSQDVYLSTIVTEWNLVCEDDWKAPLTISLFFVGVLLGSFISGQLSDRFGRKNVLFVTMGMQTGFSFLQIFSKNFEMFVVLFVLVGMGQISNYVAAFVLGTEILGKSVRIIFSTLGVCIFYAFGYMVLPLFAYFIRDWRMLLVALTMPGVLCVALWWFIPESPRWLISQGRFEEAEVIIRKAAKANGIVVPSTIFDPSELQDLSSKKQQSHNILDLLRTWNIRMVTIMSIMLWMTISVGYFGLSLDTPNLHGDIFVNCFLSAMVEVPAYVLAWLLLQYLPRRYSMATALFLGGSVLLFMQLVPPDLYYLATVLVMVGKFGVTAAFSMVYVYTAELYPTVVRNMGVGVSSTASRLGSILSPYFVYLGAYDRFLPYILMGSLTILTAILTLFLPESFGTPLPDTIDQMLRVKGMKHRKTPSHTRMLKDGQERPTILKSTAF [SLC22A5]	0.228	-0.137	56.9	59.7
MRESALERGPVPEAPAGGPVHAVTVVTLLEKLASMLETLRERQGGLARRQGGLAGSVRRIQSGLGALSRSHDTTSNTLAQLLAKAERVSSHANAAQERAVRRAAQVQRLEANHGLLVARGKLHVLLFKEEGEVPASAFQKAPEPLGPADQSELGPEQLEAEVGESSDEEPVESRAQRLRRTGLQKVQSLRRALSGRKGPAAPPPTPVKPPRLGPGRSAEAQPEAQPALEPTLEPEPPQDTEEDPGRPGAAEEALLQMESVA [PRKCDBP]	0.305	0.338	52.8	53.9
MRKIDLCLSSEGSEVILATSSDEKHPPENIIDGNPETFWTTTGMFPQEFIICFHKHVRIERLVIQSYFVQTLKIEKSTSKEPVDFEQWIEKDLVHTEGQLQNEEIVAHDGSATYLRFIIVSAFDHFASVHSVSAEGTVVSNLSS [HSPB11]	0.137	-0.328	55.1	53.3
MRLRVRLLKRTWPLEVPETEPTLGHLRSHLRQSLLCTWGYSSNTRFTITLNYKDPLTGDEETLASYGIVSGDLICLILQDDIPAPNIPSSTDSEHSSLQNNEQPSLATSSNQTSMQDEQPSDSFQGQAAQSGVWNDDSMLGPSQNFEAESIQDNAHMAEGTGFYPSEPMLCSESVEGQVPHSLETLYQSADCSDANDALIVLIHLLMLESGYIPQGTEAKALSMPEKWKLSGVYKLQYMHPLCEGSSATLTCVPLGNLIVVNATLKINNEIRSVKRLQLLPESFICKEKLGENVANIYKDLQKLSRLFKDQLVYPLLAFTRQALNLPDVFGLVVLPLELKLRIFRLLDVRSVLSLSAVCRDLFTASNDPLLWRFLYLRDFRDNTVRVQDTDWKELYRKRHIQRKESPKGRFVMLLPSSTHTIPFYPNPLHPRPFPSSRLPPGIIGGEYDQRPTLPYVGDPISSLIPGPGETPSQFPPLRPRFDPVGPLPGPNPILPGRGGPNDRFPFRPSRGRPTDGRLSFM [FBXO7]	0.02	-0.126	49.7	48.1
MRPLLGLLLVFAGCTFALYLLSTRLPRGRRLGSTEEAGGRSLWFPSDLAELRELSEVLREYRKEHQAYVFLLFCGAYLYKQGFAIPGSSFLNVLAGALFGPWLGLLLCCVLTSVGATCCYLLSSIFGKQLVVSYFPDKVALLQRKVEENRNSLFFFLLFLRLFPMTPNWFLNLSAPILNIPIVQFFFSVLIGLIPYNFICVQTGSILSTLTSLDALFSWDTVFKLLAIAMVALIPGTLIKKFSQKHLQLNETSTANHIHSRKDT [TMEM41A]	0.0255	-0.205	55.5	55.1
MRRAAGMEDFSAEEEESWYDQQDLEQDLHLAAELGKTLLERNKELEGSLQQMYSTNEEQVQEIEYLTKQLDTLRHVNEQHAKVYEQLDLTARDLELTNHRLVLESKAAQQKIHGLTETIERLQAQVEELQAQVEQLRGLEQLRVLREKRERRRTIHTFPCLKELCTSPRCKDAFRLHSSSLELGPRPLEQENERLQTLVGALRSQVSQERQRKERAEREYTAVLQEYSELERQLCEMEACRLRVQELEAELLELQQMKQAKTYLLGPDDHLAEALLAPLTQAPEADDPQPGRGDDLGAQDGVSSPAASPGHVVRKSCSDTALNAIVAKDPASRHAGNLTLHANSVRKRGMSILREVDEQYHALLEKYEELLSKCRQHGAGVRHAGVQTSRPISRDSSWRDLRGGEEGQGEVKAGEKSLSQHVEAVDKRLEQSQPEYKALFKEIFSRIQKTKADINATKVKTHSSK [CDR2L]	0.549	-0.204	–	52.5
MSATRAKKVKMATKSCPECDQQVPVACKSCPCGYIFISRKLLNAKHSEKSPPSTENKHEAKRRRTERVRREKINSTVNKDLENRKRSRSNSHSDHIRRGRGRPKSASAKKHEEEREKQEKEIDIYANLSDEKAFVFSVALAEINRKIINQRLIL [C16ORF87]	0.019	0.198	50.6	–
MSCGNEFVETLKKIGYPKADNLNGEDFDWLFEGVEDESFLKWFCGNVNEQNVLSERELEAFSILQKSGKPILEGAALDEALKTCKTSDLKTPRLDDKELEKLEDEVQTLLKLKNLKIQRRNKCQLMASVTSHKSLRLNAKEEEATKKLKQSQGILNAMITKISNELQALTDEVTQLMMFFRHSNLGQGTNPLVFLSQFSLEKYLSQEEQSTAALTLYTKKQFFQGIHEVVESSNEDNFQLLDIQTPSICDNQEILEERRLEMARLQLAYICAQHQLIHLKASNSSMKSSIKWAEESLHSLTSKAVDKENLDAKISSLTSEIMKLEKEVTQIKDRSLPAVVRENAQLLNMPVVKGDFDLQIAKQDYYTARQELVLNQLIKQKASFELLQLSYEIELRKHRDIYRQLENLVQELSQSNMMLYKQLEMLTDPSVSQQINPRNTIDTKDYSTHRLYQVLEGENKKKELFLTHGNLEEVAEKLKQNISLVQDQLAVSAQEHSFFLSKRNKDVDMLCDTLYQGGNQLLLSDQELTEQFHKVESQLNKLNHLLTDILADVKTKRKTLANNKLHQMEREFYVYFLKDEDYLKDIVENLETQSKIKAVSLED [HAUS3]	0.0967	0.224	49.8	48.6
MSDCYTELEKAVIVLVENFYKYVSKYSLVKNKISKSSFREMLQKELNHMLSDTGNRKAADKLIQNLDANHDGRISFDEYWTLIGGITGPIAKLIHEQEQQSSS [S100A16]	-0.172	0.301	–	51.3
